According to the DeepSol protein solubility set:

Test: soluble on expression in E. coli; label from the status in PepcDB or PDB records

Soluble on expression in E. coli, not soluble:
MAHHHHHHMYLCWNDTFLTSFALDTLLSKLVAEVCEKRPVSSRQVLELMREALETQKMQQWYYSETVRSFNDAVNSLSRRGFPLQMACPLYFRIPQEDGGVHELFRYGSEIAVTPNNYDHFEHMLKRYQAVVNGELSQEGYYDAVRHLLPISAHCNLLNSSYTPIINFLQECLLNPRSQWAIQSSSVWDQLGVTYAVPFAGRLFAVDPTKPVTALVSFEDANRYVEMASERCRTLSSLLTTGASLNVVRRAAAAAASPPSASSGRAAVKLAPSTIPVASSAATSEEARKWEAFEAIGLRPEVFSDMSPAEIEFWKYILRLRESPSQIHDISFHLEFGPHHMDLKENGRFIPVTRLNLNQFIEAVVAKQDEVHRYINEVALVTPTHSNASRDAGGGGEGSAGPPPPPVAASNTAAAQAMPAPQQDIKIPAQPPPRTIGSEATSPVGHAQSEAHRDNEAHLTLRDVDSTVVRSIMELRSQYQLGRLTKTELNARQLRFCLPCRDGVYNLIPNGRHIQVATGNIGIFLQYVEEEKKRVEALSGGKSEDSAARACSHAPEATTGGTGSLNVIQRDRERVYGAVEAADADAGYWTDKNVLDIWTYECTTACLLKSSMSPEEIVRQTQLQWDTNFLSRKDCPYANASEDGCVILPKDVKTYLRLLRRRLQSIRLAILDAGKCPQEPSEWDVGEWDVVNPSTPPLEFEVPASVHAIPSAPENLTMFSPTHNTGGLLAPSQSLYL, MGSDKIHHHHHHMNIPNIRLLNQQLLNPLFREPKELVSWMGAMQAQNYSMVKWAVGMRLKSATIQTVEKALREGEILRTHVMRPTWHLVAAEDIRWMLKLSAQRIISANDSFAKGYDLDIPNELYTKAHDLLEKILCGKKSLTKQEIAEHFNRSGIVADNRRMTRFMARAEQEGIICSGEDRGSKCTYALLEERVPPMPELTKDESLARLARSYFRSHSPAVLQDFIWWSGLSVSDAKQAVYLIASELITEQWKEQTWYIHDICRTRGKLSGHIHLLPSYDEYLLGYKDRTDVLPLEHYSKAFTNNGLFFPIVLHNGQVIGNWDKSVKKKSVDLKYSWFRQVADMNEETLERERQKFTRFLEK, MDGSVVRHEERLNVGKERVESGRMRIRKHVVHDTETVEVPVEREEIHVERVPLDEKVAADDAKLSEGTQDIVTHEERPVVNKETVGVEKIKIGKEAVQDTETVSGKVAKEQIDIDNAKHTKLEHHHHHH, MTILNHTLGFPRVGLRRELKKAQESYWAGNSTREELLAVGRELRARHWDQQKQAGIDLLPVGDFAWYDHVLTTSLLLGNVPARHQNKDGSVDIDTLFRIGRGRAPTGEPAAAAEMTKWFNTNYHYMVPEFVKGQQFKLTWTQLLDEVDEALALGHKVKPVLLGPITWLWLGKVKGEQFDRLSLLNDILPVYQQVLAELAKRGIEWVQIDEPALVLELPQAWLDAYKPAYDALQGQVKLLLTTYFEGVTPNLDTITALPVQGLHVDLVHGKDDVVELHKRLPSDWLLSAGLINGRNVWRADLTEKYVQIKDIVGKRDLWVASSCSLLHSPIDLSVETRLDAEVKSWFAFALQKCHELALLCDALNSGDTAALAEWSAPIQARRHSTRVHNPAVEKRLAAITAQDSQRANVYEVRAEAQRARFKLPAWPTTTIGSFPQTTEIRTLRLDFKKGNLDANNYRTGIAEHIRQAIVEQERLGLDVLVHGEAERNDMVEYFGEHLDGFVFTQNGWVQSYGSRCVKPPIVIGDVSRPAPITVEWAKYAQSMTDKPVKGMLTGPVTILCWSFPREDVSRETIAKQIALALRDEVADLEAAGIGIIQIDEPALREGLPLRRSDWDAYLQWGVEAFRINAAVAKDDTQIHTHMCYCEFNDIMDSIAALDADVITIETSRSDMELLESFEEFDYPNEIGPGVYDIHSPNVPSVEWIEALLKKAAKRIPAERLWVNPDCGLKTRGWPETRAALANMVQAAQNLRRG, MTKQTKYVQTVIDELATKGVEALDAMANFTQEQVDHIVHQAAIAALDKHMYLAKLAVDETGRGIYEDKAIKNMYASEYIWNSIKYDKPVGVIAEDKEQGLVSIAEPVGVICGVTPTTNPTSITIFKALIAL, MAHHHHHHMQQENRHLSSADLFKKFTLQNVAQIANISNKEQSQIRGELTEQYPLLADFWEDIMPKKPDIMLVRCHDQVHCVTLVSSQPEVLFFRHHNSPYIPHLKLLHKYPFILPRQQVDIGGCKYVVSGANVMCPGLTSEGGYITPGLAAGAIVAIHVEQKEHAIAVGRMLMSSEEIERVNNGPGIENIHHLGDGLWMNRVLSSSHIGAR, MKQQGTTLPANNHTLKQYAFFAGMLSSLKKQKWRKGMSESLHLTRNGSILEITLDRPKANAIDAKTSFEMGEVFLNFRDDPQLRVAIITGAGEKFFSAGWDLKAAAEGEAPDADFGPGGFAGLTEIFNLDKPVIAAVNGYAFGGGFELALAADFIVCADNASFALPEAKLGIVPDSGGVLRLPKILPPAIVNEMVMTGRRMGAEEALRWGIVNRVVSQAELMDNARELAQQLVNSAPLAIAALKEIYRTTSEMPVEEAYRYIRSGVLKHYPSVLHSEDAIEGPLAFAEKRDPVWKGR, SLLLKMDAFQDRLGTRGMLVRKGDHDETKVLPAVPVPQVRAANLPAAQAGDARIGTLPALFQALRASLPADEECNGLQAGDAQEPLTVTRLSTDKLLVSTDCWMGAYNVGTGVRVLNARAPFSCQPW, MGSDKIHHHHHHMKIVFITTVASSIYGFRAPVIKKLIGKNHQVYAFVSEFSDNELDIIREMGVTPVTYRSNRSGVNPFSDIKSTFLIFKALKKISPDLVFPYFAKPVIFGTFAAKLAGVPRIVGMLEGLGFAFTPQPEGIPLKTKIIKGILIALYRIALPMLESLIVLNPDDKDELLHQYGIKIKNIHILGGIGLDLRQYPYSEADIPDEKEPVKFLFIGRFLKEKGIDDFIRAAEQVKGKYPDTVFTALGAIDKSRGGGGDLERFIARDIIRFPGFVNNVSEVIKAHHIFVLPSYYREGVPRSTQEAMAVGRAVITTDVPGCRETVADKVNGFLIEPWNPRILAEKMIYFIENRAAVRLMANASYAIAKDKFDAEKVDLKFLDILKA, MSKHRIALAGNPNTGKSTLFNTLTGLKQHTGNWTGKTVLKAEGEYEHNGSNYTLIDLPGTYSLYSNSADEEVARDYIIFEKPEVTVVVIDATAMERNLNLALQVMEMTNNVVICINLIDEAEKKGIVIDEKKLAKSLGVPVVKISARNRVGIGHLLNVIAKVANKKLIPTPIKITYSEKIENMIQELEPQIYKVFGDTYPARWIALRILDGDKNFLTTLQKHHNEPLVREVVINGISLSQ, EGPLHWESTLTYTSYRDRWKERDPKVILAPYVKENDPVSAIYTLIPDGIKQAGEDTPAMPDLLPGQRKYKDVNGLDEEGNLTGKPDGKIDQADVVYLGTRAPKFTMGFSNDFRYKGFDLNIYLYASVGGYSYPYTQVEHGVYGGNGIQRLKDNNNFLADIKNRWTSDNMSSAMPSGEVNSYDSYGAPNWEKNTYLRLKSVTLGYDLSRLFKADKLKVRFYFSGQNLLTFTGYKGLDPEVENDRASYPQQKTFSFGLDVKF

Soluble on expression in E. coli, soluble:
MSLIEERLKHYLEKQIPARDQYIEQMEREAHEQQVPIMDLLGMESLLHLLKMAAPARILEIGTAIGYSAIRMAQALPEATIVSIERDERRYEEAHKHVKALGLESRIELLFGDALQLGEKLELYPLFDVLFIDAAKGQYRRFFDMYSPMVRPGGLILSDNVLFRGLVAETDIEHKRHKQLATKIDTYNQWLLEHPQYDTRIFPVGDGIAISIKRETKGDTDDEKAEGHHHHHH, MSTGDSFETRFEKMDNLLRDPKSEVNSDCLLDGLDALVYDLDFPALRKNKNIDNFLSRYKDTINKIRDLRMKAEDYEVVKVIGRGAFGEVQLVRHKSTRKVYAMKLLSKFEMIKRSDSAFFWEERDIMAFANSPWVVQLFYAFQDDRYLYMVMEYMPGGDLVNLMSNYDVPEKWARFYTAEVVLALDAIHSMGFIHRDVKPDNMLLDKSGHLKLADFGTCMKMNKEGMVRCDTAVGTPDYISPEVLKSQGGDGYYGRECDWWSVGVFLYEMLVGDTPFYADSLVGTYSKIMNHKNSLTFPDDNDISKEAKNLICAFLTDREVRLGRNGVEEIKRHLFFKNDQWAWETLRDTVAPVVPDLSSDIDTSNFDDLEEDKGEEETFPIPKAFVGNQLPFVGFTYYSNRRYL, MRLDLSAKFRQVLGLAKDHASIGRAIVQNYNEKAFFDIEVAVVRATSHDDCPVDDKTMHEILFLVSNTPGSIPFLAEQISRRLAKTRDCLVAGKTLLLFHRLLRGSSRSIEQQLHIAHTSGHLQIGCSWFMMSLDSRSFVFLQNYVAYLQERVGWIINQAGKLEPVMSGGTKFSRYKEKSMDLVFHILPKCQEFIAQVLKCSPVDAWPIDNLVQAATGNILKESFQVYMTYSDGMTALVSMLFDLSRPARDLACGMLRKASQQIQDLRILYDKCRGFAGMKSLDYPSVQAISMDHIVALEECSSYGGKRGFSLSTNLRDAITCNELKQEQHSASFSSTSPFSLPVETKISMVWVVFDNEDGEESDKQTEKAYER, MSLVIITDATEADLDQIFQIETESFEDPYPYSLLRAYLFLANKLYLVAKQREKVVGYIIGIIQYGYRGHIVSIAVEPIYRKQGIGAKLLNEIEERFKLNGARYSYLEVNTNNLSAISFYRANGYLIMYVRKNYYGRDKHAFVMVKNLYEGHHHHHH, MSLRYLLGIDVGTSGTKTALFDECGNTIKTSTHEYELFQPQVGWAEQNPENWWTACVKGIREVIEKSKIDPLDIKGIGISGQMHGLVLIDKEYKVIRNSIIWCDQRTEKECTQITDTIGKEKLIRITGNPALTGFTLSKLLWVRNNEPDNYKRIYKVLLPKDYIRFKLTGVFAAEVSDASGTQMLDINTRNWSEELLDDLRIDKNILPDVYESVVVSGCVIEKASKETKLAVNTPVVGGAGDQAAGAIGNGIVREGLISTVIGTSGVVFAATDTPRFDSKGRVHTLCHAVPNKWHIMGVTQGAGLSLNWFKRTFCAKEILESKEAGINIYDLLTEKASQSKPGSNGIIYLPYLMGERTPHIDPNVKGAFLGISLINNHNDFVRSILEGVGFSLKNCLDIIENMKVNIEEIRVSGGGAESSIWRQILSDIFNYELTTVKASEGPALGVAILAGVGAGIYNSVEEACDKIVKGNEKVMPNANLIEVYSKVYEVYNSAYPKIKDEGHHHHHH, MDDLMKDRIDLLIDYIMKHCLWQFHSRSWDRKRQNEGILTKTTQLLCDEPVDLGTPADKCYWVDAVCLADAYKSRYPWLKTMDKDDIKALMGALHERLDHLTITGSLNLELTDQHYLEHHHHHH, MAEASIEKTQILQKYLELDQRGRIIAEYVWIDGTGNLRSKGRTLKKRITSIDQLPEWNFDGSSTNQAPGHDSDIYLKPVAYYPDPFRRGDNIVVLAACYNNDGTPNKFNHRHEAAKLFAAHKDEEIWFGLEQEYTLFDMYDDVYGWPKGGYPAPQGPYYCGVGAGKVYARDMIEAHYRACLYAGLEISGINAEVMPSQWEFQVGPCTGIDMGDQLWMARYFLHRVAEEFGIKISFHPKPLKGDWNGAGCHANVSTKEMRQPGGTKYIEQAIEKLSKRHAEHIKLYGSDNDMRLTGRHETASMTAFSSGVANRGSSIRIPRSVAKEGYGYFEDRRPASNIDPYLVTGIMCETVCGAIDNADMTKEFERESS, MSENMVNLPDSLYEDYSKLKLTSPSNASSSSSAPPPRLSVVAHPTVEMIIQWVCDIHKPKSYMSDFALHNLAYHRNDFEFLPSLLWESKNTVYIMLQEVFEAYRHLAGHISLRLFPHPLNPLRVYNVFLLFQSMACHPDTSRQFLRAKMPNYFYPLMDTGLIDKSDECMRLAALGVIAHMLKASEDGAVNRYLMESGVVGFCVKPIEFGSTETKKVALYILDKIMSTDQGLYYCCVLADRFYVIDELLKKVLFYLSNMVRPPSSLFSLVTGCYVKLSQNSRARNGIRRYTPFLLFDGTFSRLYAEDPVAANNRIQLLQNLDN
